Experimental data from paper PMC6449189.
Like-named read-outs stand apart in the source and are kept apart here.

Key:
Assay in all cases: EMSA
LbCas12a [1] = biological target: T1, LbCas12a (Lachnospiraceae bacterium ND2006, UniProt A0A5S8WF58 1-1228)
LbCas12a [2] = biological target: T1, LbCas12a; remark: listed apart in the source
LbCas12a [3] = biological target: T1, LbCas12a; remark: listed apart in the source
LbCas12a [4] = biological target: T1, LbCas12a; remark: listed apart in the source

In the case of AAUUUCUACUAAGUGUAGAUAAAGUGCUCAUCAUUGGAAAACGU (structured_RNA) [LbCas12a crRNA (24-nt T1) rGJK_007], the Kd (LbCas12a [1]) is reported as 35.8 ± 4.4 nM, the Kd (LbCas12a [2]) is reported as 16.4 ± 2.1 nM and the Kd (LbCas12a [3]) is reported as 38.9 ± 4.7 nM. The Kd (LbCas12a [4]) was 17.6 ± 2.4 nM.
